Data set [1] concerns Influenza A/H1N1 (A/Roma-ISS/2/08 and A/Parma/24/09) and A/H3N2 (A/Parma/05/06). In kind it is cell-based, Influenza A virus.
Data set [2] deals with all tested virus strains (Influenza A H1N1, H3N2, H5N1, H7N1).
Data set [3] deals with Influenza virus A/RomaISS/2/08. In kind it is binding.
Data set [4] relates to HA and NA surface antigens of Solomon (H1N1) and Wisconsin (H3N2) subunit vaccines. The data set is classed as binding, Influenza A virus.
In data set [5] the test system is A/Solomon (3/06) inactivated subunits, vaccine H1N1. In kind it is cell-based, Influenza A virus.
In the next data set the test system is A/PR/8/34 H1N1. The data set is classed as cell-based, Influenza A virus.
Data set [6] relates to A/Roma-ISS/2/08 (Brisbane-like) (oseltamivir-sensitive) H1N1. In kind it is cell-based, Influenza A virus.
The test system of data set [7] is A/Parma/5/06 (Wisconsin-like) H3N2. The data set is classed as cell-based, Influenza A virus.
The subject of data set [8] is SW X-179A 1089/09 inactivated subunits, vaccine H1N1. In kind it is cell-based, Influenza A virus.
Data set [9] concerns Avian 29/05/06 inactivated vaccine H5N1. The data set is classed as cell-based, Influenza A virus. As to conditions: Avian 29/05/06 H5N1 inactivated vaccine.
For data set [10], the system named is A/Wisconsin (67/05) inactivated subunits, vaccine H3N2. The data set is classed as cell-based, Influenza A virus.
For data set [11], the system named is A/Turkey/Italy/2676/99 H7N1. The data set is classed as cell-based, Influenza A virus.

Where two headings read alike, the source gives them in different places.

B1: C-lobe: bovine lactoferrin C-lobe as named in the text, without saying which of the two fragments of Table 2 (protein)
chain: YTRVVWCAVGPEEQKKCQQWSQQSGQNVTCATASTTDDCIVLVLKGEADALNLDGGYIYTAGKCGLVPVLAENRKSSKHSSLDCVLRPTEGYLAVAVVKKANEGLTWNSLKDKKSCHTAVDRTAGWNIPMGLIVNQTGSCAFDEFFSQSCAPGADPKSRLCALCAGDDQGLDKCVPNSKEKYYGYTGAFRCLAEDVGDVAFVKNDTVWENTNGESTADWAKNLNREDFRLLCLDGTRKPVTEAQSCHLAVAPNHAVVSRSDRAAHVKQVLLHQQALFGKNGKNCPDKFCLFKSETKNLLFNDNTECLAKLGGRPTYEEYLGTEYVTAIANLKKCSTSPLLEACAFLTR
modifications: bovine lactoferrin C-lobe peptide
As to B1, the “effect on virus replication / infection (in words)” value in data set [1] is “highly inhibited”. For the same molecule, the “inhibition of viral hemagglutination (in words)” value in [2] is “marked inhibition of viral hemagglutination”.

B2: bLf: Lactoferrin from bovine milk, purchased from Morinaga Milk Industries, deprived of endotoxin (protein, UniProt P24627 20-708, looked up)
Lactotransferrin: APRKNVRWCTISQPEWFKCRRWQWRMKKLGAPSITCVRRAFALECIRAIAEKKADAVTLDGGMVFEAGRDPYKLRPVAAEIYGTKESPQTHYYAVAVVKKGSNFQLDQLQGRKSCHTGLGRSAGWIIPMGILRPYLSWTESLEPLQGAVAKFFSASCVPCIDRQAYPNLCQLCKGEGENQCACSSREPYFGYSGAFKCLQDGAGDVAFVKETTVFENLPEKADRDQYELLCLNNSRAPVDAFKECHLAQVPSHAVVARSVDGKEDLIWKLLSKAQEKFGKNKSRSFQLFGSPPGQRDLLFKDSALGFLRIPSKVDSALYLGSRYLTTLKNLRETAEEVKARYTRVVWCAVGPEEQKKCQQWSQQSGQNVTCATASTTDDCIVLVLKGEADALNLDGGYIYTAGKCGLVPVLAENRKSSKHSSLDCVLRPTEGYLAVAVVKKANEGLTWNSLKDKKSCHTAVDRTAGWNIPMGLIVNQTGSCAFDEFFSQSCAPGADPKSRLCALCAGDDQGLDKCVPNSKEKYYGYTGAFRCLAEDVGDVAFVKNDTVWENTNGESTADWAKNLNREDFRLLCLDGTRKPVTEAQSCHLAVAPNHAVVSRSDRAAHVKQVLLHQQALFGKNGKNCPDKFCLFKSETKNLLFNDNTECLAKLGGRPTYEEYLGTEYVTAIANLKKCSTSPLLEACAFLTR
B2: the “effect on virus replication / infection (in words)” value in data set [1] was “markedly inhibited”. Also, the “virus binding to bLf” value in [3] (pH 4) is on record as 47.2+/−1.4%; in [3] (pH 5), 52.9+/−9.7%; in data set [3] (pH 6), 34.1+/−4.1%. In data set [4], the “bLf binding to viral envelope proteins (in words)” value is on record as “binds to a viral protein of apparent molecular mass of 28 kDa”. For the same molecule, the HI titre is given as 5 pM in data set [5]; 3 nM in the data set on A/PR/8/34 H1N1; 6 nM in data set [6]; 3 nM in data set [7]; 46.5 fM in [8]; 2.9 pM in data set [9]. The HI titre is listed as 0.3 pM in [10] and 93.1 fM in [11]. Moreover, the “substance-induced agglutination or erythrocyte lysis” value in [2] (turkey red blood cells, in the hemagglutination assays) was “Neither bLf-induced agglutination nor visual evidence of erythrocyte lysis was observed”.
